Here are results for two substances from patent publication US5879917.

For the data set, the system named is hUBF (RNA polymerase I transcription factor UBF), HeLa (Homo sapiens). The data set is described as follows: footprint. The note with it: 14 mM MgCl2, 50 mM KCl, pH 7.9, 30 C.

On to “human rRNA promoter -208 to +78 (EcoRI-BstEII fragment of pSBr208, 286 bp)”, for which, for the setting “apparent Kd (half-maximal), cooperative, Hill 2.7”, the Kd stood at 0.018 nM.

As to “G^G-100 (100 bp with single central cisplatin 1,2-d(GpG) intrastrand crosslink)”, the Kd (single cis-[Pt(NH3)2]2+ d(GpG) 1,2-intrastrand adduct, central, non-cooperative) is 0.06 nM.
